# Results as given in paper PMC4986892 (RNA, 2016).
# T1: S. pombe Dcp1:Dcp2RD decapping complex (S. pombe, UniProt Q9P805;O13828)
# T1 sequence 1: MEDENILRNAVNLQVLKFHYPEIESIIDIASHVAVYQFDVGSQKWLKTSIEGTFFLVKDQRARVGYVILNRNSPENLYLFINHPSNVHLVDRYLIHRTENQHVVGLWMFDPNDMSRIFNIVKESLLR
# T1 sequence 2: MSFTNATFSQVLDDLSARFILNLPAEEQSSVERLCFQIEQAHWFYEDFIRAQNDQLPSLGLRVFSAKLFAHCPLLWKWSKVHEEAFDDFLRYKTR
# T2: S. pombe Dcp1:Dcp2_(RD+CD) decapping complex (S. pombe, UniProt Q9P805;O13828)
# T2 sequence 1: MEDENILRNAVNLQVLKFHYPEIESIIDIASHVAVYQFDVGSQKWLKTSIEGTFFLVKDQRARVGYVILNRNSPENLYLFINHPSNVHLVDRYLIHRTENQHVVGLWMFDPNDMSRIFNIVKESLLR
# T2 sequence 2: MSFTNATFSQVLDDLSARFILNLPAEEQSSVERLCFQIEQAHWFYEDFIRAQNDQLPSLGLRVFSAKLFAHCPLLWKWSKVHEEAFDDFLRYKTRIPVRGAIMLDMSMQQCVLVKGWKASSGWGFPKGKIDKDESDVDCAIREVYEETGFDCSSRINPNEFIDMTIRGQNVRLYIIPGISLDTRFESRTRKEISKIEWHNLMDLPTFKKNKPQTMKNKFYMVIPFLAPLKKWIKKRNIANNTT
# T3: S. pombe Dcp1 (S. pombe, UniProt Q9P805)
# T3 sequence: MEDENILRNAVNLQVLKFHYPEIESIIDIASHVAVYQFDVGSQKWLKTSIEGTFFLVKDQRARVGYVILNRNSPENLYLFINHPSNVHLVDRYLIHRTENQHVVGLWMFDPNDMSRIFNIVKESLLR
# Tests used:
# [1] = target: T1, S. pombe Dcp1:Dcp2RD decapping complex; assay: NMR titration
# [2] = target: T1, S. pombe Dcp1:Dcp2RD decapping complex; assay: NMR titration; remark: listed apart in the source
# [3] = target: T1, S. pombe Dcp1:Dcp2RD decapping complex; assay: fluorescence polarisation
# [4] = target: T2, S. pombe Dcp1:Dcp2_(RD+CD) decapping …; assay: fluorescence polarisation
# S. pombe Dcp1 = target: T3, S. pombe Dcp1; assay: NMR titration
binder,measurement,setting,value
S. pombe Xrn1 (1201–1328) (domain or fragment) TNPQFVVNTRAGKNRKTNVSANNVSQGTDSRLVTKPTSTFPSPPSPPSSSVWNKREHHPKPFSLHQVPPPESLIHKSKSKFSKGNHHSTNGTQSIRGRGGKRGKPLRSKELNRKHDHIVQPMGKLQIN,binding result,[1],binds
VSQGTDSRLVTKPTSTFPSPPSPPSSSVWNKREH [S. pombe Xrn1 (1224–1257)],Kd,[2],640000 ± 170000 nM
APSDLATPQPSTFPQPPVESHSSFDIKQKILHLLNEGNEPKSPI (domain or fragment) [S. pombe Dcp2 C-terminal region (269–312)],Kd,[2],310000 ± 110000 nM
"Fluorescently labeled S. pombe Edc1 1–221 (S183C) (domain or fragment, 5-(iodoacetamido)-fluorescein on the cysteine introduced by S183C (labeling efficiency ~50%)) MQKDIGRRFQRNKKKINSKPGGAMVASSDVEFSLDGMSIMPQRDGNLQIPNFVKPKSTFATSNIGESNGKRNGDKVRGNRRSKSGHSSYAGSRISGGNSNSHLPSGVASAPAGLGIDKVAVGEVDSHLKSVSSYVSNSSGADRSFSSNSSSDTNSILYAGPTFTHSPAASNLPIPTFLHSPVCEKAEWQPPTGSVNSNMPFQFHQSSSVPSTPSEVAMGHN",Kd,[3],143 nM
same,Kd,[4],250 nM
S. pombe Edc1 (144–215) (domain or fragment) SFSSNSSSDTNSILYAGPTFTHSPAASNLPIPTFLHSPVSEKAEWQPPTGSVNSNMPFQFHQSSSVPSTPSE,Kd,[4],415 nM
GTEIQPIPPSIDPSLYVFP [S. pombe Dhh1 (401–419)],binding result,[1],binds
S. pombe Dcp2 C-terminal tail (267–350) (domain or fragment) STAPSDLATPQPSTFPQPPVESHSSFDIKQKILHLLNEGNEPKSPIQLPPVSNLPLNPPIQSSNSRLSHDNNSFDPFAYLGLDP,binding result,S. pombe Dcp1,binds
"SFSSNSSSDTNSILYAGPTFTHSPAASNLPIPTFLHSP [S. pombe Edc1 (144–181), as used for NMR]",binding result,[1],binds
